In the DeepSol protein solubility set:

Assay: soluble on expression in E. coli; label from the status in PepcDB or PDB records

Row | Sequence | soluble on expression in E. coli
1 | MSLYYICPYFLDKNGHRVQKTMVGKVALDEQKLTPQKFSITYPLIINLQDEKVKTKVNEDIVNQVSELFKNQVLLTEKIDLSEVFGAYEIGVNRNYILSILFSIYTYMNRAAHGLTVYSSITVNTRTGKVYSFSDLFNPKMNYLGELTTIVKKYIKDNNIQLIEDYKGVTNDQEFYLTNDKLVLYYQVYAYTPYYYGLFRIPIPYTEIKNLLGPMSPINNLIEGHHHHHH | not soluble
2 | MSMERSLEAWEEVQRHGQDLADRLAQGFTGLIHINPPSFPWPPNHHHLHKAKLFDLEFPTQHFSVIKDSRFSINQPINGVTAILDIGNKIGQAGVDFGAGLNVMVQQFFRRLPIPFLHEDNNKLVVSVDGDKSTRSHRAYVITKGDLGMATERLRDSGFSKTDDTASVTMSEEEVADSYLRAAGLLGRSKGTIDTSSSYDSRTNGMEHSLAARGDLWRVEASHSSSTASDGNSSLFLLQLGPLLFLRDSTLLLPLHLSKQHLLWYGYDRKSFMDLQFPNGQLTYVSGEGLTTSAFVPFCGGLLQAQGQYPGDMRFSYSCKNKCGTRITPMVHWPDKSFGLDLSQPLAWRRSGLLMKPTIQVSVCPTFGGSNPGIKAEVIHSLSDDLNLICGYALNAHPSAFASVAFGRSKWNGNIGRTGIVVRADTPLASIGQPSFSIQLNNAFEF | soluble
3 | MSMSNGDAQKDTKTTAETKQTEQKTADSKKSNTQNSEFSLESQYFNDIKKVDGLETIQNPENILALVNKQYALPGNYEPSDLVIPDVEFSFEEKIQKRYIRKEAADALKTMFDAAKKEGYELAAVSGYRSYDRQKVIFDNEVSLKGERKAKEAVAYPGESEHQTGLAMDISSRSNGFELNEAFGSTADGKWVQDNAYKYGFIIRYPKNKEDITKYEYEPWHLRYVGKKAAKVIQDNDLTLEEYFEKVKKILEHHHHHH | not soluble
4 | MSNALRGGPDFLLSVDSPVNIPSAFWSTLSPMTPRPRLLLTAALLALVPAAQAADLRLYPTLGEVTSQPLKVEGGAVTVPFPKADWAWVVPGSVRLLGVPVTRTRVTPGVNVLRAHEGEAVRVLRGGLNLKGTLADAEALLVQLDSGEYLTVRPDELAFSTRPPSSRDVADVKVTFETGGAGSANLLYQTRALSWKPRYELDASGDAATLRALAEIRNAGDQSFSGSTDLYAGDVRLVPENVPMPTLRWWENSPRPPAARAMPLSPRTALSRLSARLEHHHHHH | not soluble
5 | MSNDLTQITQRSLDEQVIGNLNRLQEQGLEMPPGYSPQNALKSAFFELTNNSGGNLLQLAANNPETKTSISNALLDMVIQGLSPAKKQCYFIKYGNKVQLMRSYFGTMAVLDRVTGGADITPVVVREGDVFEIAMDGPDLVVAKHETAFENLDNDIKAAYVVIKLANGKEVTTVMTKKQIDKSWSKAKTKNVQNDFPEEMAKRTVINRAAKYLINTSNDNDLFVQAAKDTLENEFERKDVTPEREEQAAVLEEKLFSNNIKAVDQENENERITRVADVPEQPDIEQAKPIEKDNLTKVADQILEEPVQETLDVMAGYETNQKESEADVSTIEEDDYPF | not soluble
6 | MSNEEIKNKDEQLQQDAVETEAEVVGTDADIDWNQAADEIDEKEAKIAQLEAALLVSEERVKEQQDSVLRARAEVENMRRRSEQEVDKARKFALSRFAEELLPVIDNLERAIQAADGEVEAIKPLLEGVELTHKTFVDTIAKFGLKEINPHGEVFNPEFHQAMSIQESAEHEPNTVMFVMQKGYELNGRVLRPAMVMVSK | not soluble
7 | MSNHDQLHRYLFANHAVRGELVSVNETYQQVLANHDYPPAVQKLLGEMLVATSLLTATLKFDGDITVQLQGGDGPLTLAVINGNNRQEMRGVARVKGEISDDSTLQEMVGNGYLVITITPAQGERYQGVVALEGETIAACLENYFMQSEQLPTRLFIRTGHVADKAAAGGMLLQVLPAQERNEDEFDHLAQLTATIKAEELFTLPANEVLYRLYHQEEVTLYEPQNVSFRCTCSRQRCADALVTLADDDVTEMLEQDGNIDMHCEYCGNHYLFDAVDIATLKNGNSASSEQIH | not soluble
8 | MSNPLAVDVPTFTKLHNVAQWLSQQPPSPRLFDQKENGFSQNFQPFLKTVNSCTIPDDLHEEMMRLKRKENAFKTALCKTFQLTRACSYGEQCKFAHSVEELQLKQKNRGVNHPKYKTVLCDNFSRTGHCKYGTKCQFIHRAVEPTPAQNPLMPQFSSWFAPSSGLSREFLDNFGASASSSSTDFS | not soluble
9 | MSNTIRLSGIAYESLVNGPGIRRVFFSQGCKHNCIGCFNPDTHDFNGGEERDIEELIKDLADNPFIDGVTFSGGDPLEQANKFIYIAKAARELGLNIWSYTGYKFEYLLEHANEFNKWKEYLENIDVLVDGKFDINKKEDGLKFRGSSNQRIINVKESLKEGKVIELEFLEHHHHHH | not soluble
10 | MSNTLNHTSSRQIVRHYTHSQKRCKHLMQYFVSANGLFELKVKIYAFLFSMILEGKCRSVSIIADISCFFLFHFHAIRNAFYSIHPTYRAEGENERLTLLLIAQGYALSL | not soluble
11 | MSNTTGQWCDGNSVELLINGEDFYARVFECIRAARKEVLIETFIIFEDRIGEGLQQALLQAAANGAKVVVTVDDYGTSDLSSVFVKTMIDAGIQIQLFDPRPRFMGMRTNLFRRLHRKVVVIDGELGFIGGINYSVDHMTDTGVTAKQDYAVLVRGPIVGDIHHSALNMLSKVVRDKLPPIALKLDRAGDASMLLAER | not soluble
12 | MSNVLTEIDSQYPYMTKNEKKIAKFILNSPQKVIKMRSQDLASLLDISTSSVIRFSKKITDGGFHDLKINISKYVPKASSIYNVELMNNESTESLRTKLHTRTTRALNHANNELNDKTIDQICHCLKRSETIFIYGFGASFVVATDLYQKLSRIGLNIQLVQETHIFATLLATHNSNDSVILITNNGTQSEMQSMVKVIDDYHIPIITITSTRDNPVAQASNIVLTYGKTDENEMHMGATTSLFAQMFTIDILYYRYVALNYHASLDFITQSKMALDNYRKHLSNINFKH | not soluble
13 | MSPAYLCARPRTRASVTFRPTCGVNLPFHADRARTVSTSTNSATVLWLGYQAPNSISTAVSGAVANHAAKDLQKFQTALQSRNPDQRKVVIGYSYGSTVAGKAASSSELDVRARHFRGDGYSIALNNAVEIKGLEHHHHHH | not soluble
14 | MSPILAKNIVYVAQIKGQITSYTYDQFDRYITIAEQDNAEAIIIELDTPGGRADAMMNIVQRIQQSKIPVIIYVYPPGASAASAGTYIALGSHLIAMAPGTSIGACRPILGYSQNGSIIEAPPKITNYFIAYIKSLAQESGRNATIAEEFITKDLSLTPEEALKYGVIEVVARDINELLKKSNGMKTKIPVNGRYVTLNFTNVEVRYLAPSFKDKLISYITDLEHHHHHH | soluble
15 | MSPLNFTHILTQTVDELSESESYKGLFHQHKDGEPLPSPRVLCDVIELARSILFPGYYGNSTVNSRTINYHIGVNVEKLFNLLTEQILAGLCFGNGDRCDECTEAKREEAARLAAKFISKLPHLRRVLATDVEAAYNGDPAAQSFGEVIFCYPAIKAISNYRIAHELLELGVPLIPRIITEMAHSETGIDIHPGARIGTHFTIDHGTGVVIGATSIIGNNVKLYQGVTLGARSFPLDADGKPIKGIPRHPILEDNVIVYSNATILGRITIGRDATVGGNIWVTENIPAGARIVQTKAKKLEHHHHHH | soluble
16 | MSQDIFTRDNLLRVENPNILVGESPVKYRVEEIYLDGKLKKAEDVDEEEKSYGIFMHSLVLSNYAEVMNVSHKKLDVIRDEKEKAIFYFTEEKGFDKSLIESIVPKVEAFSLNEDKLKVSTHIINEKMRIISRGTPDELLKRCSYILLDSKIVKKTRKIYREINRVLNDMINRCCTVYALAIKDVSKTDIITNVDAYIDGMTLVALIGMCRA | soluble
17 | MSQGQSKKLDVTVEQLRSIYHQFHDILEEKTDLHLPKKEYDDDAVRREVQIQLQEFLLSAMTMASKSLEVVNADTVGKTVKQLIMESQEKYMEPFDLDLNEQVRKMYQEWEDETVKVAQLRQTGPAKINEVYNNSKDEYLAQLDGRIGVLQARMMQQQSADHDDSTDDADDHINWEHIKQDYVASLNELYQTQQDLPKVRYNVEKVKRLMDFLEED | soluble
18 | MSQIMYNYPAMMAHAGDMAGYAGTLQSLGADIASEQAVLSSAWQGDTGITYQGWQTQWNQALEDLVRAYQSMSGTHESNTMAMLARDGAEAAKWGG | soluble
19 | MSQKTEQDDIPLADDDDTVTIISGGKTPRAAQPLPKEEPPEDPEEKARMITQVLELQNTLDDLSQRVESVKEESLKLRSENQVLGQYIQNLMSSSSVFQSSQPSRPKQ | soluble
20 | MSQLLQDYLNWENYILRRVDFPTSYVVEGEVVRIEAMPRLYISGMGGSGVVADLIRDFSLTWNWEVEVIAVKDYFLKARDGLLIAVSYSGNTIETLYTVEYAKRRRIPAVAITTGGRLAQMGVPTVIVPKASAPRAALPQLLTAALHVVAKVYGIDVKIPEGLEPPNEALIHKLVEEFQKRPTIIAAESMRGVAYRVKNEFNENAKIEPSVEILPEAHHNWIEGSERAVVALTSPHIPKEHQERVKATVEIVGGSIYAVEMHPKGVLSFLRDVGIASVKLAEIRGVNPLATPRIDALKRRLQ | soluble
21 | MSQNDLNKEKALVVFSGGQDSTTCLFYAKKHFKEVELVTFNYGQRHDKEIEVAKKIAKEQNLKHHILDMSLLSQLTPNALTQHELSIEDNDDGIPNTFVPARNLLFLSFAGALAYQIHAKHIITGVCETDFSGYPDCRDSFIKSMNVTLSLSMDKDFVIHTPLMWLDKAQTWALSDKLGVLDYIRHNTLTCYNGIIGDGCGECPACHLRARGLKHYLEHKGEE | not soluble
22 | MSQNLFNVEDYRKLAQKRLPKMVYDYLEGGAEDEYGVKHNRDVFQQWRFKPKRLVDVSRRSLQAEVLGKRQSMPLLIGPTALNGALWPKGDLALARAATKAGIPFVLSTASNMSIEDLARQCDGDLWFQLYVIHREIAQGMVLKALHTGYTTLVLTTDVAVNGYRERDLHNRFKIPPFLTLKNFEGIDLGKMDKANLEMQAALMSRQMDASFNWEALRWLRDLWPHKLLVKGLLSAEDADRCIAEGADGVILSNHGGRQLDCAISPMEVLAQSVAKTGKPVLIDSGFRRGSDIVKALALGAEAVLLGRATLYGLAARGETGVDEVLTLLKADIDRTLAQIGCPDITSLSPDYLQNEGVTNTAPVDHLIGKGTHAHHHHHH | soluble
23 | MSQPESPEQRRTAILATAERILRSGSPLTLGKVAQEVGISRTALYRYVSGIDEIIETLATKDFPHWLTSLRSAMAAAPTPKQRALCWAIESIKLGRETDHAWLATLSSLNLSENCRNAIASEHSKIDQLLRVELAQLGTPHIELTVATVRAVVMTAIQTPSSTEADDYFTATISAIIDASC | not soluble
24 | MSQQVTMSFSVVPQAKTKDVYSVVDKAIEVVQQSGVRYEVGAMETTLEGELDVLLDVVKRAQQACVDAGAEEVITSIKIHYRPSTGVTIDEKVWKYRDEYAKPEAI | soluble
25 | MSQRPTSSHDSSAPHHIPVDDCLTYDTGYRPNLPGQRTWWVFCPVTGAFDNSYALLGAMIECVARGQATLAPAWDRTFAGGIWYDFDCGADVLDGRLLMDMAVDDMQRRIERYMSTNDGQMGCKPALGFR | not soluble
